{
  "source": "paper PMC4755762",
  "key": {"[1]": {"molecular_target": "CD11b_(342-424c)/CD18 chimera on CHO cells (human) (UniProt P11215)", "assay": "flow cytometry on cells"}, "[2]": {"molecular_target": "CD11b_(614-682c)/CD18 chimera on CHO cells (human) (UniProt P11215)", "assay": "flow cytometry on cells"}, "[3]": {"molecular_target": "CR3 chimera with residues 33 to 115 of CD11b replaced by the corresponding segment of CD11c, with CD18, on CHO cells (human) (UniProt P11215)", "assay": "flow cytometry on cells"}, "[4]": {"molecular_target": "CR3 chimera with residues 686 to 1152 of CD11b replaced by the corresponding segment of CD11c, with CD18, on CHO cells (human) (UniProt P11215)", "assay": "flow cytometry on cells"}, "[5]": {"molecular_target": "CD11c_(614-682b)-YFP/CD18 chimera on CHO cells (human) (UniProt P11215)", "assay": "flow cytometry on cells; 2x10^5 CHO cells expressing YFP-fused integrins with different concentrations of CyaA-biotin; streptavidin-PE; mean fluorescence intensities against CyaA concentration"}},
  "data": [
    {"substance": "adenylate cyclase toxin-hemolysin (CyaA) of Bordetella pertussis, intact (from UniProt P0DKX7 1-1706) (natural protein)", "values": [
      {"measurement": "CyaA binding, percent of binding to intact CD11b/CD18", "setting": "[1]", "result": 61, "unit": "%"},
      {"measurement": "fold decrease of CyaA binding against intact CR3", "setting": "[2]", "result": 10, "unit": "fold"},
      {"measurement": "CyaA binding, percent of binding to intact CD11b/CD18", "setting": "[3]", "result": 72, "unit": "%"},
      {"measurement": "CyaA binding, percent of binding to intact CD11b/CD18", "setting": "[4]", "result": 89, "unit": "%"},
      {"measurement": "fold higher CyaA binding than CD11c-YFP/CD18", "setting": "[5]", "result": 24, "unit": "fold"},
      {"measurement": "fold lower CyaA binding than CD11b-YFP/CD18", "setting": "[5]", "result": 1.7, "unit": "fold"}
    ]}
  ]
}
